Assay results taken from the Immune Epitope Database (IEDB).

Tests used:
Experiment in all cases: IEDB peptide-MHC binding, purified MHC/competitive/radioactivity; filed as Kd, often an IC50 or EC50 that approximates it; ≥ and ≤ were set here for values at or beyond the usual limits of such assays
HLA-A*68:01 = biological target: HLA-A*68:01
HLA-A*31:01 = biological target: HLA-A*31:01
HLA-A*11:01 = biological target: HLA-A*11:01
HLA-A*03:01 = biological target: HLA-A*03:01
HLA-A*33:01 = biological target: HLA-A*33:01
[1] = source organism: Dengue virus 1 Brazil/97-11/1997
[2] = source organism: Vaccinia virus WR
[3] = source organism: Dengue virus 4 Philippines/H241/1956
[4] = source organism: Dengue virus 2 Jamaica/1409/1983
[5] = source organism: SARS coronavirus Tor2
[6] = source organism: Lymphocytic choriomeningitis virus (strain Armstrong)
[7] = source organism: Mammarenavirus lassaense
[8] = source organism: Dengue virus 3 Martinique/1243/1999
[9] = source organism: Dengue virus 4 Dominica/814669/1981

| Sequence | Kd (HLA-A*11:01; [2]) | Kd (HLA-A*68:01; [2]) | Kd (HLA-A*03:01; [2]) | Kd (HLA-A*33:01; [2]) | Kd (HLA-A*31:01; [2]) | further results |
| --- | --- | --- | --- | --- | --- | --- |
| GVCGIRSATR |  |  |  |  |  | Kd (HLA-A*68:01; [1]): 1.88 µM; Kd (HLA-A*31:01; [1]): ≥ 70 µM |
| HTCMSECVR | 0.0673 µM | 0.0578 µM | 3.2 µM | 0.324 µM | 0.0254 µM |  |
| HVQTKPGLFK |  |  |  |  |  | Kd (HLA-A*11:01; [3]): 0.389 µM; Kd (HLA-A*03:01; [3]): 0.00844 µM |
| IAEFVKENER | ≥ 30.7 µM | 0.169 µM | ≥ 70.1 µM | 5.58 µM | 1.69 µM |  |
| ILGGVLHTK | 0.0193 µM | 0.558 µM | 0.00192 µM | 6.16 µM | 1.38 µM |  |
| ILMKTANNY | 0.287 µM | ≥ 20.9 µM | 0.325 µM | ≥ 77.7 µM | ≥ 77.9 µM |  |
| ILSDIISAEK | 0.000829 µM | 0.00429 µM | 0.000501 µM | 1.38 µM | 0.0145 µM |  |
| IMLEGETKLY | 5.11 µM | 1.01 µM | 1.61 µM | ≥ 41.1 µM | ≥ 55.8 µM |  |
| IMQAGKRSLR |  |  |  |  |  | Kd (HLA-A*33:01; [4]): 0.219 µM; Kd (HLA-A*31:01; [4]): 0.0058 µM |
| ISRTRLYDY | 1.41 µM | ≥ 42.9 µM | 0.176 µM | 2.19 µM | 1.24 µM |  |
| ISSIIRSLPK |  |  |  |  |  | Kd (HLA-A*11:01; source organism: Mammarenavirus whitewaterense): 0.023 µM |
| ISSKQYPAGR | 0.128 µM | 0.00859 µM | 1.02 µM | 0.317 µM | 0.00562 µM |  |
| IVHSYLKNY | 1.23 µM | ≥ 23.8 µM | ≥ 21.6 µM | ≥ 77.7 µM | ≥ 25.5 µM |  |
| IVHSYLKNYK | 0.058 µM | 0.257 µM | 0.0973 µM | 9.72 µM | 0.0275 µM |  |
| IVRTMPNESR | 16.1 µM | 0.401 µM | 0.241 µM | 10.7 µM | 4.82 µM |  |
| KAINVLRGFR |  |  |  |  |  | Kd (HLA-A*31:01; [4]): 0.000824 µM |
| KIKTNDINVR | 11.3 µM | 9.08 µM | 2.91 µM | ≥ 21 µM | 0.103 µM |  |
| KMVEPWLSSK |  |  |  |  |  | Kd (HLA-A*03:01; [3]): 0.0115 µM |
| KSIHLTKTDK | 0.0198 µM | 0.416 µM | 0.107 µM | ≥ 70 µM | 0.313 µM |  |
| KTSKTTILSK | 0.0964 µM | 3.96 µM | 0.0444 µM | ≥ 70 µM | 0.311 µM |  |
| LFDFVNFVK | 0.145 µM | 0.128 µM | 0.812 µM | 9.1 µM | 0.798 µM |  |
| LFKNLATSIY | ≥ 69.8 µM | 19.9 µM | ≥ 41.7 µM | ≥ 70 µM | ≥ 37.1 µM |  |
| LFQLCTFTK |  |  |  |  |  | Kd (HLA-A*11:01; [5]): 0.191 µM; Kd (HLA-A*68:01; [5]): 0.579 µM; Kd (HLA-A*03:01; [5]): 0.438 µM; Kd (HLA-A*33:01; [5]): 0.875 µM; Kd (HLA-A*31:01; [5]): 0.574 µM |
| LIKFISDNK | 0.222 µM | 0.0011 µM | 0.151 µM | 0.624 µM | 0.12 µM |  |
| LINRFTMRHK |  |  |  |  |  | Kd (HLA-A*03:01; source organism: Dengue virus 2 Peru/IQT2913/1996): 0.0141 µM |
| LLMPILTLTR |  |  |  |  |  | Kd (HLA-A*11:01; [5]): 0.199 µM; Kd (HLA-A*68:01; [5]): 0.0897 µM; Kd (HLA-A*03:01; [5]): 0.571 µM; Kd (HLA-A*33:01; [5]): 0.262 µM; Kd (HLA-A*31:01; [5]): 0.00553 µM |

| Sequence | Kd (HLA-A*11:01; [2]) | Kd (HLA-A*68:01; [2]) | Kd (HLA-A*03:01; [2]) | Kd (HLA-A*33:01; [2]) | Kd (HLA-A*31:01; [2]) | further results |
| --- | --- | --- | --- | --- | --- | --- |
| LLSGQGPMK |  |  |  |  |  | Kd (HLA-A*03:01; [1]): 0.0402 µM |
| LMRFITAETH |  |  |  |  |  | Kd (HLA-A*68:01; [6]): 3.54 µM; Kd (HLA-A*33:01; [6]): 5.45 µM; Kd (HLA-A*31:01; [6]): 0.411 µM |
| LSCTKNTSHH |  |  |  |  |  | Kd (HLA-A*11:01; [7]): ≥ 69.7 µM; Kd (HLA-A*68:01; [7]): ≥ 43.7 µM; Kd (HLA-A*03:01; [7]): ≥ 70 µM; Kd (HLA-A*33:01; [7]): ≥ 70 µM; Kd (HLA-A*31:01; [7]): ≥ 43.1 µM |
| LSDENYLLK | 0.00159 µM | 13.5 µM | 0.591 µM | ≥ 66.1 µM | 1.5 µM |  |
| LSYIYSEIK | 0.0273 µM | 0.252 µM | 0.026 µM | 1.59 µM | 8.6 µM |  |
| LTWLGLNSR |  |  |  |  |  | Kd (HLA-A*33:01; [1]): 0.0438 µM; Kd (HLA-A*31:01; [1]): ≥ 63.3 µM |
| MGYWIESSK |  |  |  |  |  | Kd (HLA-A*03:01; [3]): 0.0839 µM |
| MLNILNRRRR |  |  |  |  |  | Kd (HLA-A*31:01; [4]): 0.0141 µM |
| MLSIINKRK |  |  |  |  |  | Kd (HLA-A*03:01; [8]): 0.121 µM |
| MVLAFITFLR |  |  |  |  |  | Kd (HLA-A*11:01; [3]): 0.971 µM; Kd (HLA-A*68:01; [3]): 0.0174 µM; Kd (HLA-A*33:01; [3]): 0.0223 µM; Kd (HLA-A*31:01; [3]): 0.00434 µM |
| MWSLMYFHR |  |  |  |  |  | Kd (HLA-A*33:01; [8]): 0.00136 µM; Kd (HLA-A*31:01; [8]): 0.0289 µM |
| MWSLMYFHRR |  |  |  |  |  | Kd (HLA-A*33:01; [8]): 0.0312 µM; Kd (HLA-A*31:01; [8]): 0.0115 µM |
| NTSVDLYAR |  |  |  |  |  | Kd (HLA-A*11:01; source organism: Mammarenavirus guanaritoense): 2.19 µM |
| RLRMDKLQLK |  |  |  |  |  | Kd (HLA-A*03:01; [4]): 0.00791 µM |
| SMLNIMNRRK |  |  |  |  |  | Kd (HLA-A*03:01; [1]): 0.0496 µM |
| SQLAKRFSR |  |  |  |  |  | Kd (HLA-A*31:01; source organism: Dengue virus 3 Singapore/8120/1995): 0.00207 µM |
| STYGWNLVR |  |  |  |  |  | Kd (HLA-A*68:01; [4]): 0.00881 µM; Kd (HLA-A*03:01; [4]): 0.0635 µM; Kd (HLA-A*33:01; [4]): 0.00291 µM; Kd (HLA-A*31:01; [4]): 0.00326 µM |
| SYSMCTGKFK |  |  |  |  |  | Kd (HLA-A*33:01; [4]): 0.841 µM |
| TSGSPIIDK |  |  |  |  |  | Kd (HLA-A*11:01; source organism: Dengue virus 2 16681-PDK53): 0.0694 µM |
| TTLSLDYAWK |  |  |  |  |  | Kd (HLA-A*11:01; [1]): 0.0798 µM; Kd (HLA-A*68:01; [1]): 0.0139 µM |
| TTVITPMLR |  |  |  |  |  | Kd (HLA-A*68:01; [8]): 0.0118 µM; Kd (HLA-A*33:01; [8]): 0.0367 µM |
| VFLRKLTSR |  |  |  |  |  | Kd (HLA-A*33:01; [9]): 0.178 µM; Kd (HLA-A*31:01; [9]): 0.0668 µM |
| VSLLGSALLK |  |  |  |  |  | Kd (HLA-A*11:01; [3]): 0.0453 µM; Kd (HLA-A*03:01; [3]): 0.0249 µM |
| VVVGAGGVGK |  |  |  |  |  | Kd (HLA-A*11:01; source organism: Homo sapiens): 0.0124 µM; Kd (HLA-A*03:01; source organism: Homo sapiens): 0.082 µM |
| YMPSMKRFR |  |  |  |  |  | Kd (HLA-A*33:01; [4]): 0.00757 µM; Kd (HLA-A*31:01; [4]): 0.1 µM |
| YVSAIAQTEK |  |  |  |  |  | Kd (HLA-A*11:01; [4]): 0.311 µM; Kd (HLA-A*68:01; [4]): 0.024 µM |
